This passage reports Kd results from paper PMC8060872.

Common to all, as to assay: AUC
The target in assay [1] is C-terminally truncated SARS-CoV main protease Δ(201–306) (SARS-CoV).
The target of assay [2] is C-terminally truncated SARS-CoV main protease Δ(293–306) (SARS-CoV).
Assay [3] addresses N-terminally truncated SARS-CoV main protease Δ(1–4) (SARS-CoV).
The target of assay [4] is N-terminally truncated SARS-CoV main protease Δ(1–5) (SARS-CoV).
Assay [5] deals with N-terminally truncated SARS-CoV main protease Δ(1–6) (SARS-CoV).
Assay [6] concerns the target N-terminally truncated SARS-CoV main protease Δ(1–7) (SARS-CoV).

Take “C-terminally truncated SARS-CoV main protease Δ(201–306) (domain or fragment)”: the Kd in assay [1] is 7870 µM.
In the case of “C-terminally truncated SARS-CoV main protease Δ(293–306) (domain or fragment)”, in assay [2], the Kd was determined as 163 µM.
In assay [3], “N-terminally truncated SARS-CoV main protease Δ(1–4) (domain or fragment)” had an equilibrium dissociation constant (Kd) of 57.5 µM.
For the substance “N-terminally truncated SARS-CoV main protease Δ(1–5) (domain or fragment)”, in assay [4], the Kd came to 35.4 µM.
“N-terminally truncated SARS-CoV main protease Δ(1–6) (domain or fragment)”: the dissociation constant (Kd) in assay [5] was 151 µM.
In assay [6], “N-terminally truncated SARS-CoV main protease Δ(1–7) (domain or fragment)” returned a dissociation constant Kd of 357 µM.
